This note sets out measurements from PMC12619835, “KLF5 enables dichotomous lineage programs in pancreatic cancer via the AAA+ ATPase coactivators RUVBL1 and RUVBL2” (Nature Communications, 2025).

The assay has as its target T1, RUVBL1/2 hetero-hexamer (purified, recombinant) (UniProt Q9Y265 1-456; Q9Y230 1-463).
T1 construct: RUVBL1; RUVBL2, untagged; Printed as a hetero-hexamer; also called RUVBL1/2 complex; source: E. coli BL21, co-expressed, purified (Ni-NTA, TEV cleavage, SEC on Superose 6); not shown: His6, N-terminal, cleaved
Put plainly: pull-down; MBP-KLF5 (10 μg) or MBP (5 μg) on amylose resin; 10 μg RUVBL1, 10 μg RUVBL2 or 20 μg RUVBL1/2 hetero-hexamer added for 2 h in 50 mM Na3PO4 pH 7.5, 0.1 mM EDTA, 200 mM NaCl, 1 mM DTT, 5% glycerol; washes with 250 mM NaCl; maltose elution; Western blot; 4 °C. Conditions: both partners purified. Background: Immunoblotting shows a protein as a band on a membrane.

T1 sequence (Q9Y265 whole entry, chain 1 of 2): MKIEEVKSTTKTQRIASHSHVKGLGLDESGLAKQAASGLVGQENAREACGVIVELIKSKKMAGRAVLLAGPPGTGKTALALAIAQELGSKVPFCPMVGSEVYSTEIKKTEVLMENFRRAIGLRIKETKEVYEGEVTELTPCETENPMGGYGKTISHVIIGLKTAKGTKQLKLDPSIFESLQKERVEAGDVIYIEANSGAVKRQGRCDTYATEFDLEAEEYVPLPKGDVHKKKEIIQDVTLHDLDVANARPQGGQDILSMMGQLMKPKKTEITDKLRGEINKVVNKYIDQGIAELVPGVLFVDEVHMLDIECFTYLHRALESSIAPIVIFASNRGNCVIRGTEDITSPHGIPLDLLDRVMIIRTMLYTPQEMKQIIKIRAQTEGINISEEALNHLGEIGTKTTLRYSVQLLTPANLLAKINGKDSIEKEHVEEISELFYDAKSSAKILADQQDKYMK
T1 sequence (Q9Y230 whole entry, chain 2 of 2): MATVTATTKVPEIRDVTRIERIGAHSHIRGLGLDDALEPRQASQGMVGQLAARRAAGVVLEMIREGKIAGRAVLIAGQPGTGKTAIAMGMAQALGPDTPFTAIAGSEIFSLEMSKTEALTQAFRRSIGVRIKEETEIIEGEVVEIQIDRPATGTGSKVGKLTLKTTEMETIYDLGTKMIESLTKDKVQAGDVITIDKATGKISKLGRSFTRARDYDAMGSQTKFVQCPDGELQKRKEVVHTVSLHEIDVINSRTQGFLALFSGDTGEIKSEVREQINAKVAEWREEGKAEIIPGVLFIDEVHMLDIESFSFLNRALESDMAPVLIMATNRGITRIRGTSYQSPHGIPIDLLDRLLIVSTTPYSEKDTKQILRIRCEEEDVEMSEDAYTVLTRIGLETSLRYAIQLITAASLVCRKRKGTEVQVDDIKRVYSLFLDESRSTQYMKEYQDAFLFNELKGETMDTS

B1: recombinant MBP-tagged KLF5 (natural protein)
chain: not shown
notes: KLF5; For the pull-down with pure proteins the MBP-KLF5 was not previously subject to the amylose purification; also called MBP-KLF5; 6xHis-TEV-MBP-KLF5; source: E. coli BL21-CodonPlus (DE3)-RIPL, purified (Ni-NTA, TEV cleavage, SEC; also amylose resin for the mass spectrometry experiments); not shown: His6, N-terminal, cleaved; MBP, N-terminal, kept
B1: the binding result is “binds”.
